Legend:
[1] = system: IgE from mite-allergic dog sera; test: ELISA, binding of IgE from dog sera to coated Der f 1 proteins or mite extracts, detected with FcεR1α-biotin
Protocol: Native or recombinant Der f 1 proteins in 100 μl CBC buffer (50 mM sodium carbonate, pH 9.6) were coated onto wells (100 ng per well) of Immulon II microtiter plates (available from Dynex Technologies, Chantilly, Va.) by incubation at 4° C., covered, overnight. Excess fluid was removed and wells were blocked with 200 μl Assay Buffer (4% fetal calf serum (available from Summit Laboratories, Fort Collins, Colo.) in phosphate buffered saline (PBS, recipe in Sambrook, ibid.), plus 0.05% Tween-20 (available from Sigma, St. Louis, Mo.)) for one hour at room temperature. Plates were then washed for 4 cycles on an automatic plate washer (Ultrawash, available from Dynatech Laboratories) using PBS with 0.05% Tween-20. […] Control wells were treated identically except that no serum was added. Plates were then washed as described above. Biotinylated human IgE receptor alpha chain (FcεR1α-biotin) (100 μl of 1.3 ng/ml) prepared as described in U.S. Pat. No. 5,945,294, ibid., was added and incubated for one hour at room temperature. After this incubation, plates were washed as described above. Streptavidin-horseradish peroxidase conjugate (0.5 mg/ml, available from KPL Labs, Gaithersburg, Md.) was added at a 1:5000 dilution in Assay Buffer for one hour at room temperature, after which plates were washed as described above. TMB Peroxidase substrate system, 2 part (available from KPL Labs, #0-76-00), added at 100 μl per well, was used according to the manufacturer's directions. The color reaction was allowed to proceed until good color development was reached (about 10-15 min); then the reaction was stopped with 100 μl per well of 1 M phosphoric acid. Bound IgE was determined by measuring absorbance (Optical Density, or OD) at 450 nm (nanometers) using an ELISA plate reader (such as Spectramax”, Molecular Devices, Sunnyvale, Calif.). Background OD readings in the control wells were subtracted from all numbers. Results are reported in Tables 1, 2 and 3 as OD multiplied by 1000. OD numbers greater than 100 are considered to be positive for a reaction with IgE. P. pastoris-expressed proteins are denoted in the Tables as Pichia expressed proteins.

[2] = system: IgE from pooled mite-allergic human sera; test: Monoclonal Capture ELISA (Example 8B, Table 7); format: binding
Protocol: Assays were carried out as follows. A microtiter plate as described in Example 5 was coated overnight at 4° C. with 100 ng/well of anti-Der f 1 protein monoclonal antibody 6A8, denoted herein as anti-Der f 1 MAb 6A8, provided by Dr. Martin Chapman. The plate was washed in the manner described above. The following proteins were then added to wells, having been diluted in Assay Buffer in a 2-fold dilution series, from 0.75 to 50 ng/well: Heska native Derf1, P. pastoris-expressed PDerf1303b, and E. coli-expressed PDerf1303c. After incubation for 1 hour at room temperature, plates were washed as described in Example 5. Then 100 μl per well of a 1:1000 dilution in Assay Buffer of biotinylated anti-Der f 1 monoclonal antibody 4C1, also denoted anti-Der f 1 MAb 4C1, provided by Dr. Martin Chapman, was added for 1 hour at room temperature. Plates were washed, streptavidin-HRP conjugate was added, and plates were developed as described in Example 5.
B. The Der f 1 proteins described in Example 8B were reacted as described in Example 6 with a pool of serum samples collected from 16 mite-allergic human patients.

[3] = system: IgE from mite-allergic or normal human sera; test: ELISA, binding of IgE from human sera to coated Der f 1 proteins or mite extracts, detected with FcεR1α-biotin
[4] = system: IgE; conditions: literature reports (Chua et al 1992; Shoji et al 1996, 1997); cited from earlier work

B1: Chapman native Derf1: Native purified Der f 1 protein, purified in the laboratory of Martin Chapman (protein)
chain: TSACRINSVNVPSELDLRSLRTVTPIRMQGGCGSCWAFSGVAATESAYLAYRNTSLDLSEQELVDCASQHGCHGDTIPRGIEYIQQNGVVEERSYPYVAREQRCRRPNSQHYGISNYCQIYPPDVKQIREALTQTHTAIAVIIGIKDLRAFQHYDGRTIIQHDNGYQPNYHAVNIVGYGSTQGDDYWIVRNSWDTTWGDSGYGYFQAGNNLMMIEQYPYVVIM
OD, bound IgE ([1]; Assay Number 1, serum dog pool): 341 OD multiplied by 1000
OD, bound IgE ([1]; Assay Number 1, serum dog-1): 6 OD multiplied by 1000
OD, bound IgE ([1]; Assay Number 1, serum dog-2): 1408 OD multiplied by 1000
OD, bound IgE ([1]; Assay Number 1, serum dog-3): 3125 OD multiplied by 1000
OD, bound IgE ([1]; Assay Number 2, dog sera pool A 146): 220 OD multiplied by 1000
OD, bound IgE ([1]; Assay Number 2, dog sera pool KS338): 19 OD multiplied by 1000
OD, Monoclonal Capture ELISA ([2]; 0.39 ng protein per well): 1480 OD
OD, Monoclonal Capture ELISA ([2]; 0.78 ng protein per well): 2186 OD
OD, Monoclonal Capture ELISA ([2]; 1.55 ng protein per well): 2447 OD
OD, Monoclonal Capture ELISA ([2]; 3.1 ng protein per well): 2597 OD
OD, Monoclonal Capture ELISA ([2]; 6.25 ng protein per well): 2620 OD
OD, Monoclonal Capture ELISA ([2]; 12.5 ng protein per well): 2483 OD
OD, Monoclonal Capture ELISA ([2]; 25 ng protein per well): 2249 OD
OD, bound IgE ([3]; Assay Number 1, serum human 1916): 17 OD multiplied by 1000
OD, bound IgE ([3]; Assay Number 1, serum human3848): 2336 OD multiplied by 1000
OD, bound IgE ([3]; Assay Number 1, serum human 3958): 1261 OD multiplied by 1000
OD, bound IgE ([3]; Assay Number 1, serum human 3960): 1024 OD multiplied by 1000
OD, bound IgE ([3]; Assay Number 1, serum human 3961): 326 OD multiplied by 1000
OD, bound IgE ([3]; Assay Number 1, serum human 3987): 1216 OD multiplied by 1000
OD, bound IgE ([3]; Assay Number 1, serum human 4289): 287 OD multiplied by 1000
OD, bound IgE ([3]; Assay Number 1, serum human 4467): 615 OD multiplied by 1000
OD, bound IgE ([3]; Assay Number 1, serum human 5207): 2669 OD multiplied by 1000
OD, bound IgE ([3]; Assay Number 1, serum human pool): 1531 OD multiplied by 1000
OD, bound IgE ([3]; Assay Number 2, serum Heska human B): 0 OD multiplied by 1000
OD, bound IgE ([3]; Assay Number 2, serum Heska human C): 0 OD multiplied by 1000
OD, bound IgE ([3]; Assay Number 2, serum Heska human D): 0 OD multiplied by 1000
OD, bound IgE ([3]; Assay Number 2, serum Heska human E): 2 OD multiplied by 1000
OD, bound IgE ([3]; Assay Number 2, serum Heska human F): 0 OD multiplied by 1000
OD, bound IgE ([3]; Assay Number 2, serum Heska human G): 0 OD multiplied by 1000
OD, bound IgE ([3]; Assay Number 2, serum Heska human H): 0 OD multiplied by 1000
OD, bound IgE ([3]; Assay Number 2, serum Heska human I): 0 OD multiplied by 1000
OD, bound IgE ([3]; Assay Number 2, serum Heska human J): 0 OD multiplied by 1000
OD, bound IgE ([3]; Assay Number 2, serum Heska human K): 0 OD multiplied by 1000
OD, bound IgE ([3]; Assay Number 2, serum Heska human L): 0 OD multiplied by 1000
OD, bound IgE ([3]; Assay Number 2, serum Heska human M): 0 OD multiplied by 1000
OD, bound IgE ([3]; Assay Number 2, serum Heska human N): 373 OD multiplied by 1000
OD, bound IgE ([3]; Assay Number 2, serum Heska human O): 0 OD multiplied by 1000
OD, bound IgE ([3]; Assay Number 2, serum Heska human P): 0 OD multiplied by 1000
OD, bound IgE ([3]; Assay Number 2, serum Heska human Q): 0 OD multiplied by 1000
OD, bound IgE ([3]; Assay Number 2, serum Heska human R): 0 OD multiplied by 1000
OD, bound IgE ([3]; Assay Number 2, serum human 1916): 8 OD multiplied by 1000
OD, bound IgE ([3]; Assay Number 2, serum human 3848): 1726 OD multiplied by 1000
OD, bound IgE ([3]; Assay Number 2, serum human 3958): 822 OD multiplied by 1000
OD, bound IgE ([3]; Assay Number 2, serum human 3960): 522 OD multiplied by 1000
OD, bound IgE ([3]; Assay Number 2, serum human 3961): 169 OD multiplied by 1000
OD, bound IgE ([3]; Assay Number 2, serum human 3987): 846 OD multiplied by 1000
OD, bound IgE ([3]; Assay Number 2, serum human 4289): 173 OD multiplied by 1000
OD, bound IgE ([3]; Assay Number 2, serum human 4467): 353 OD multiplied by 1000
OD, bound IgE ([3]; Assay Number 2, serum human 5207): 2171 OD multiplied by 1000
OD, bound IgE ([3]; Assay Number 2, serum human pool): 1236 OD multiplied by 1000
OD, bound IgE ([3]; Table 3, sera 429, PDerf1303b preparation number A166-26, PDerf1223b preparation 1000-7): 152 OD multiplied by 1000
OD, bound IgE ([3]; Table 3, sera 1916, PDerf1303b preparation number A166-26, PDerf1223b preparation 1000-7): 14 OD multiplied by 1000
OD, bound IgE ([3]; Table 3, sera 3848, PDerf1303b preparation number A166-26, PDerf1223b preparation 1000-7): 1033 OD multiplied by 1000
OD, bound IgE ([3]; Table 3, sera 3958, PDerf1303b preparation number A166-26, PDerf1223b preparation 1000-7): 1067 OD multiplied by 1000
OD, bound IgE ([3]; Table 3, sera 3960, PDerf1303b preparation number A166-26, PDerf1223b preparation 1000-7): 738 OD multiplied by 1000
OD, bound IgE ([3]; Table 3, sera 3961, PDerf1303b preparation number A166-26, PDerf1223b preparation 1000-7): 221 OD multiplied by 1000
OD, bound IgE ([3]; Table 3, sera 3987, PDerf1303b preparation number A166-26, PDerf1223b preparation 1000-7): 865 OD multiplied by 1000
OD, bound IgE ([3]; Table 3, sera 4467, PDerf1303b preparation number A166-26, PDerf1223b preparation 1000-7): 489 OD multiplied by 1000
OD, bound IgE ([3]; Table 3, sera 5207, PDerf1303b preparation number A166-26, PDerf1223b preparation 1000-7): 1836 OD multiplied by 1000
OD, bound IgE ([3]; Table 3, sera human pool, PDerf1303b preparation number A166-26, PDerf1223b preparation 1000-7): 1114 OD multiplied by 1000
OD, bound IgE ([3]; Table 6, pool of sera from 16 mite-allergic human patients, 6.2 ng protein per well): 17 OD
OD, bound IgE ([3]; Table 6, pool of sera from 16 mite-allergic human patients, 12.5 ng protein per well): 116 OD
OD, bound IgE ([3]; Table 6, pool of sera from 16 mite-allergic human patients, 25 ng protein per well): 215 OD
OD, bound IgE ([3]; Table 6, pool of sera from 16 mite-allergic human patients, 50 ng protein per well): 488 OD
OD, bound IgE ([3]; Table 6, pool of sera from 16 mite-allergic human patients, 100 ng protein per well): 581 OD
OD, bound IgE ([3]; Table 6, pool of sera from 16 mite-allergic human patients, 200 ng protein per well): 584 OD

B2: Der f 1 pro-form: Recombinant Der f 1 pro-form from baculovirus expression system in insect cells (Shoji et al) (protein, listed as Dermatophagoides farinae)
chain: RPASIKTFEEFKKAFNKNYATVEEEEVARKNFLESLKYVEANKGAINHLSDLSLDEFKNRYLMSAEAFEQLKTQFDLNAETSACRINSVNVPSELDLRSLRTVTPIRMQGGCGSCWAFSGVAATESAYLAYRNTSLDLSEQELVDCASQHGCHGDTIPRGIEYIQQNGVVEERSYPYVAREQRCRRPNSQHYGISNYCQIYPPDVKQIREALTQTHTAIAVIIGIKDLRAFQHYDGRTIIQHDNGYQPNYHAVNIVGYGSTQGDDYWIVRNSWDTTWGDSGYGYFQAGNNLMMIEQYPYVVIM
IgE reactivity relative to the native protein [4]: 20%

From patent US8465945B2, “Method for production and use of mite group 1 proteins” (Merck Patent GmbH, priority 1999, dated 2013)
